According to patent US20090232830A1:

Assays:
Assay in all cases: cell-based or functional assay
[1] = target: NYU1423 envelope protein (HIV-1)
[2] = target: GXE-14 envelope protein (HIV-1)
[3] = target: MACS#4 envelope protein (HIV-1)
[4] = target: VI1273 envelope protein (HIV-1)
[5] = target: CA1 envelope protein (HIV-1)
[6] = target: VI843 envelope protein (HIV-1)
[7] = target: VI1249 envelope protein (HIV-1)
[8] = target: 24/008 envelope protein (HIV-1)
[9] = target: VI423 envelope protein (HIV-1)
[10] = target: VI1793 envelope protein (HIV-1)
[11] = target: R2 envelope protein (HIV-1)
[12] = target: VI1399 envelope protein (HIV-1)
[13] = target: 24/00/4 envelope protein (HIV-1)
[14] = target: LY109 envelope protein (HIV-1)
[15] = target: 14/00/4 envelope protein (HIV-1)
[16] = target: 93BR029 envelope protein (HIV-1)
[17] = target: NYU1423 (T662) mutant Env (HIV-1)
[18] = target: NYU1026 (T662) mutant Env (HIV-1)
[19] = target: 14/00/4 (A662) mutant Env (HIV-1)
[20] = target: NYU1026 envelope protein (HIV-1)
[21] = target: LY109(N662T) mutant Env (HIV-1)

Row | Substance | neutralization, 50% inhibitory concentration [1] [µg/mL] | neutralization, 50% inhibitory concentration [2] [µg/mL] | neutralization, 50% inhibitory concentration [3] [µg/mL] | neutralization, 50% inhibitory concentration [4] [µg/mL] | neutralization, 50% inhibitory concentration [5] [µg/mL] | neutralization, 50% inhibitory concentration [6] [µg/mL] | neutralization, 50% inhibitory concentration [7] [µg/mL] | neutralization, 50% inhibitory concentration [8] [µg/mL] | neutralization, 50% inhibitory concentration [9] [µg/mL] | neutralization, 50% inhibitory concentration [10] [µg/mL] | neutralization, 50% inhibitory concentration [11] [µg/mL] | neutralization, 50% inhibitory concentration [12] [µg/mL] | neutralization, 50% inhibitory concentration [13] [µg/mL] | neutralization, 50% inhibitory concentration [14] [µg/mL] | neutralization, 50% inhibitory concentration [15] [µg/mL] | neutralization, 50% inhibitory concentration [16] [µg/mL] | other results
1 | two-domain soluble CD4 (from UniProt P01730 26-208) (receptor) | 25 | 9.34 | 1.56 | > 50 | < 0.39 | > 50 | 3.13 | 4.69 | 50 | 25 | 0.78 | 6.25 | > 50 | > 25 | 0.59 | < 0.39 | –
2 | X5 (antibody) | 25 | > 25 | 25 | > 25 | > 25 | > 25 | 25 | > 25 | < 6.25 | > 25 | < 6.25 | < 25 | > 25 | > 25 | > 25 | < 25 | –
3 | 2G12 (antibody) | 25 | > 50 | 4.69 | 9.38 | > 50 | 6.25 | > 50 | 0.78 | 25 | 6.25 | > 50 | 50 | > 50 | > 25 | > 50 | 18.8 | –
4 | Z13 (antibody) | – | > 25 | > 25 | > 25 | > 25 | > 25 | > 25 | > 25 | > 25 | > 25 | > 25 | > 25 | > 25 | > 25 | > 25 | > 25 | –
5 | Mab 2F5 (antibody) | 25 | 3.13 | 3.13 | 3.13 | > 12.5 | > 50 | 0.98 | > 50 | 1.96 | 1.17 | 0.78 | 1.56 | 1.17 | 6.64 | < 0.39 | 0.39 | Mab ID50 (neutralization) [1]: 25 µg/mL; neutralization ID50 [1]: 17.7 µg/mL; Mab ID50 (neutralization) [17]: 12.5 µg/mL; neutralization ID50 [17]: 10.4 µg/mL; neutralization ID50 [18]: 0.31 µg/mL; neutralization ID50 [19]: 6.25 µg/mL; neutralization ID50 [20]: 3.13 µg/mL; Mab ID50 (neutralization) [14]: 3.1 µg/mL; neutralization ID50 [15]: 0.45 µg/mL; Mab ID50 (neutralization) [21]: 0.39 µg/mL
6 | Mab 4E10 (antibody) | 25 | 13.3 | 7.82 | 6.25 | 12.5 | 12.5 | 0.98 | 25 | 6.25 | 3.13 | 3.13 | 3.13 | 3.91 | 18.8 | 1.96 | 0.39 | Mab ID50 (neutralization) [1]: 25 µg/mL; Mab ID50 (neutralization) [17]: 12.5 µg/mL; neutralization ID50 [18]: 0.78 µg/mL; neutralization ID50 [19]: 9.34 µg/mL; neutralization ID50 [20]: 10.4 µg/mL; Mab ID50 (neutralization) [14]: 12.5 µg/mL; neutralization ID50 [15]: 0.9 µg/mL; Mab ID50 (neutralization) [21]: 0.78 µg/mL
7 | huMab IgG1 b12 (antibody) | > 100 | 25 | 1.56 | 9.38 | > 100 | 50 | 1.56 | > 100 | 31.2 | > 100 | 25 | 0.78 | > 100 | 100 | > 100 | > 100 | –
